# According to patent publication US20150344580A1 (MSM PROTEIN TECHNOLOGIES, published 2015):
# T1: human CXCR3 (human, UniProt P49682 1-368)
# T1 construct: whole, on cells; R1610 cells
# T1 sequence (looked up): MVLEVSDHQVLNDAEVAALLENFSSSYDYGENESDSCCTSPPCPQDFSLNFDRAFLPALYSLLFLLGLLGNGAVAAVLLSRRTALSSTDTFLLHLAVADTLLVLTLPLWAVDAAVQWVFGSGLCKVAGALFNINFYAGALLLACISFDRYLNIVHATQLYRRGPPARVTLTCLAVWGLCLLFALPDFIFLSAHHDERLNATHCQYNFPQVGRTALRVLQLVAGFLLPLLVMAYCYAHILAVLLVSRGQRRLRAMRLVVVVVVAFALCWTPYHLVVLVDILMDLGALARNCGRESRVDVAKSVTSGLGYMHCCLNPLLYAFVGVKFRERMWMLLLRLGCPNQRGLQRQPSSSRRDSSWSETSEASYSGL
# T2: human CCR6 (human, UniProt P51684 1-374)
# T2 construct: whole, on cells; CHO cells; also called CCR6 (human)
# T2 sequence (looked up): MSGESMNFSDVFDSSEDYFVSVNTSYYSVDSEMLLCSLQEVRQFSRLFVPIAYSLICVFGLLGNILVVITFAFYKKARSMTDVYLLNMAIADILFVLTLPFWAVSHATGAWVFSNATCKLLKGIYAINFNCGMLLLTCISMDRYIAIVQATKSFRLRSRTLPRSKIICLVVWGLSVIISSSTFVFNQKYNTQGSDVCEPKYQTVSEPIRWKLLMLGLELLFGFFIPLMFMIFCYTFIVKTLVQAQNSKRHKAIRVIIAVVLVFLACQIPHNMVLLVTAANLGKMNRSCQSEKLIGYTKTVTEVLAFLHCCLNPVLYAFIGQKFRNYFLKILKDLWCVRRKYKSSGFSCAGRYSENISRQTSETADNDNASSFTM
# T3: human CXCR1 (human, UniProt P25024 1-350)
# T3 construct: whole, on cells; R1610 cells
# T3 sequence (looked up): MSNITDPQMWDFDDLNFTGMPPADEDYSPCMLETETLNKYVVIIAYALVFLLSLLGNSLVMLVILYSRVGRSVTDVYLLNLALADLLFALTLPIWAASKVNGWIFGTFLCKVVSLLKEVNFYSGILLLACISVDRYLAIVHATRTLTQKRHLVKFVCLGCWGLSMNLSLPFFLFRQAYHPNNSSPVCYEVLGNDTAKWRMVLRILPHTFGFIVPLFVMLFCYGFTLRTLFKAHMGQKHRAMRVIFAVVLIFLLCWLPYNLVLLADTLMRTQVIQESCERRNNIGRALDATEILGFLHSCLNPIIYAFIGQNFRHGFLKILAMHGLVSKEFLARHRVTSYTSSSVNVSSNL
# T4: mouse CCR6 (mouse, UniProt O54689 1-367)
# T4 construct: whole, on cells; CHO cells; also called CCR6 (mouse)
# T4 sequence (looked up): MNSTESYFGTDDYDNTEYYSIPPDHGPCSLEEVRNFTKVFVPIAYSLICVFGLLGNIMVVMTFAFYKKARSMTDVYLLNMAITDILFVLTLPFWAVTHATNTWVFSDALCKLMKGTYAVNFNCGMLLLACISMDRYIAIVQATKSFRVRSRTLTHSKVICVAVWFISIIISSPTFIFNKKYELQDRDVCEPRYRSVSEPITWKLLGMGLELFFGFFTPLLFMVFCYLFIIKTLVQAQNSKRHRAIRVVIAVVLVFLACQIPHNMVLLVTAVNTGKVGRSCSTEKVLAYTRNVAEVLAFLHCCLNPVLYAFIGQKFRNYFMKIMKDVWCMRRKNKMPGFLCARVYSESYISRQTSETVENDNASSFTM
# T5: human CCR3 (human, UniProt P51677 1-355)
# T5 construct: whole, on cells; CHO cells
# T5 sequence (looked up): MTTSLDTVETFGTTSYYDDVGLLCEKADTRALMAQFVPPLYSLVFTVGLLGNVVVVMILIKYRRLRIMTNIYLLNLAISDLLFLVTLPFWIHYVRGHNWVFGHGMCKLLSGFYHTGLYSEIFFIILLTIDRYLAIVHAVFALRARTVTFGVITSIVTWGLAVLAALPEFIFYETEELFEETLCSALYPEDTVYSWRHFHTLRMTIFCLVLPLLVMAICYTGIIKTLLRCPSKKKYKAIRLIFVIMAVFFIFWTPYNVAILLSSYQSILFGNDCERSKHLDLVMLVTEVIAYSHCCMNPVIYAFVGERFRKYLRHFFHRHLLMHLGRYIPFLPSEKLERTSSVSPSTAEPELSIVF
# B1: MSM-R735 (fully human anti-human CCR7 antibody, IgG1) (antibody)
# heavy: not shown
# light: EIVLTQSPGTLSLSPGERATLSCRASQSVSSSYLAWYQQKPGQAPRLLIYGASSRATGIPDRFSGSGSGTDFTLTISRLEPEDFAVYYCQQGSPVTFGQGTKVEIKRTVAAPSVFIFPPSDEQLKSGTASVVCLLNNFYPREAKVQWKVDNALQSGNSQESVTEQDSKDSTYSLSSTLTLSKADYEKHKVYACEVTHQGLSSPVTKSFNRGEC
# notes: IgG1 format; also called R735 Human IgG1
# B2: MSM-R710 (fully human anti-human CCR7 antibody, IgG1) (antibody, V domains shown)
# VH: EVQLLESGGGLVQPGGSLRLSCAASGFTFSNYTMHWVRQAPGKGLEWVSGIGPRSGRTYYADSVKGRFTISRDNSKNTLYLQMNSLRAEDTAVYYCARSYAYQYRGFDYWGQGTLVTVSS
# VL: EIVLTQSPGTLSLSPGERATLSCRASQSVSSSYLAWYQQKPGQAPRLLIYGASSRATGIPDRFSGSGSGTDFTLTISRLEPEDFAVYYCQSSVTFGQGTKVEIKR
# notes: IgG1 format
# Assays:
# [1] = target: T1, human CXCR3; experiment: FACS, R1610-human CXCR3 cells
# Description: (§1) In more details, the cell staining procedure was: […] cell suspension in 10 μl FACS buffer (1×PBS, 2.0% FBS, 0.2% sodium azide) was mixed with 10 μl of 200 nM the corresponding anti-CCR7 MAB and incubated on ice for 30 min. Washing step—after the incubation 150 μl of FACS buffer was added to the cell sample, the samples were mixed gently by up-down pipetting the cell suspension. Then the samples were centrifuged at 1100 rpm for 5 minutes, and supernatants were removed. Washing step was repeated ones. Then 10 μl of anti-human PE-(Fab)2 form Jackson Immuno Research Lab. #709-116-098 diluted 40 times in FACS buffer were added to the cells and the cells were re-suspended by up-down pipetting. After 20 min. incubation on ice in dark the washing step was repeated twice. The washed cells were mixed with 100 μl of FIX buffer (0.5% Paraformaldehyde solution in PBS). Fixed samples were stored in dark on ice and analyzed by FACS on Guava PCA-96 flow cytometer. The fluorescent signals collected from individual cells were obtained using fluorescence Activated Cell Sorter (FACS).
# [2] = target: T2, human CCR6; experiment: FACS, CHO-human CCR6 cells
# Description: as §1
# [3] = target: T6, human CXCR7 (human, UniProt P25106 1-362); experiment: FACS, CHO-human CXCR7 cells
# T6 construct: whole, on cells; CHO cells
# T6 sequence (P25106 whole entry): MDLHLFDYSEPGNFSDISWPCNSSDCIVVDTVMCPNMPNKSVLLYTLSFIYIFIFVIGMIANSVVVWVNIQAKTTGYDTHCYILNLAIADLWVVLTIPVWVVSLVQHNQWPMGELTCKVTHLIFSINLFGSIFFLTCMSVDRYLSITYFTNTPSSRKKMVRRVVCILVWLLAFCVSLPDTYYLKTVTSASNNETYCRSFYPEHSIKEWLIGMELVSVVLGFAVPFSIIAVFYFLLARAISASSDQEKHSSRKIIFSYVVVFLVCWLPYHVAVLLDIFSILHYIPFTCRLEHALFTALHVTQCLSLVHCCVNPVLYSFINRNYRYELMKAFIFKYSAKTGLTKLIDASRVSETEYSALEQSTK
# [4] = target: T3, human CXCR1; experiment: FACS, R1610-human CXCR1 cells
# Description: as §1
# [5] = target: T7, human CCR5 (human, UniProt P51681 1-352); experiment: FACS, CHO-human CCR5 cells
# T7 construct: whole, on cells; CHO cells
# T7 sequence (P51681 whole entry): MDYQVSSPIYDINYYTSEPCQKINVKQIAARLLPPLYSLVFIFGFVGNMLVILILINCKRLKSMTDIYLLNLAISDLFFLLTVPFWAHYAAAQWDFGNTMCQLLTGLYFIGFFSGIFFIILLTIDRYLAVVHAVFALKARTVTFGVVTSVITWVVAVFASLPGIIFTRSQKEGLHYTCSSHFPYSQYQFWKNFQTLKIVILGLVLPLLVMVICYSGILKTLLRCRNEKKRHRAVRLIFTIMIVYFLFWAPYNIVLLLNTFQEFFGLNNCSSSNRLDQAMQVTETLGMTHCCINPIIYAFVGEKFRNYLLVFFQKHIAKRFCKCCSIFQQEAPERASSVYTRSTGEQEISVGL
# Description: as §1
# [6] = target: T4, mouse CCR6; experiment: FACS, CHO-mouse CCR6 cells
# Description: as §1
# [7] = target: T8, human CXCR4 (human, UniProt P61073 1-352); experiment: FACS, Cf2th-human CXCR4 cells
# T8 construct: whole, on cells; Cf2th cells
# T8 sequence (P61073 whole entry): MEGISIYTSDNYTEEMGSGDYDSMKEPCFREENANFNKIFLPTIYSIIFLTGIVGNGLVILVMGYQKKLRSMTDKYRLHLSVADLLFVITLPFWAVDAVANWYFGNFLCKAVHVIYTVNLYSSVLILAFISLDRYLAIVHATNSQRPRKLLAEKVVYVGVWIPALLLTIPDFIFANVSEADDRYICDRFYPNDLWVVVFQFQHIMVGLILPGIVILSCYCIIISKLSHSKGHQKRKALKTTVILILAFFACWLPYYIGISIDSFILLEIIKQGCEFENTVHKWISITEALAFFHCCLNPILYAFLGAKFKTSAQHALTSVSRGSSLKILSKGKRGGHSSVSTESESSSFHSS
# Description: as §1
# [8] = target: T5, human CCR3; experiment: FACS, CHO-human CCR3 cells
# Description: as §1
Binder,binding result [1],binding result [2],binding result [3],binding result [4],binding result [5],binding result [6],binding result [7],binding result [8]
B1,no binding (tested: 200 nM MAB mixed 1:1 with cells),no binding (tested: 200 nM MAB mixed 1:1 with cells),no binding (tested: 200 nM MAB mixed 1:1 with cells),no binding (tested: 200 nM MAB mixed 1:1 with cells),no binding (tested: 200 nM MAB mixed 1:1 with cells),no binding (tested: 200 nM MAB mixed 1:1 with cells),no binding (tested: 200 nM MAB mixed 1:1 with cells),no binding (tested: 200 nM MAB mixed 1:1 with cells)
B2,no binding (tested: 200 nM MAB mixed 1:1 with cells),no binding (tested: 200 nM MAB mixed 1:1 with cells),no binding (tested: 200 nM MAB mixed 1:1 with cells),no binding (tested: 200 nM MAB mixed 1:1 with cells),no binding (tested: 200 nM MAB mixed 1:1 with cells),no binding (tested: 200 nM MAB mixed 1:1 with cells),no binding (tested: 200 nM MAB mixed 1:1 with cells),no binding (tested: 200 nM MAB mixed 1:1 with cells)
